Residue numbers refer to the chain shown, from its start.
B1: t865724 (protein)
chain: MGNTTSIAGRDCLISALGGNSALAVFPNELLWTADVHEYNLNLPVTPAAITYPETAAQIAGVVKCASDYDYKVQARSGGHSFGNYGLGGADGAVVVDMKHFNQFSMDDETYEAVIGPGTTLNDVDIELYNNGKRAMAHGVCPTIKTGGHFTIGGLGPTARQWGLALDHVEEVEVVLANSSIVRASNTQNQDVFFAVKGAAANFGIVTEFKVRTEPAPGLAVQYSYTFNLGSTAEKAQFVKDWQSFISAKNLTRQFYNNMVIFDGDIILEGLFFGSKEQYDALGLEDHFAPKNPGNILVLTDWLGMVGHALEDTILKLVGNTPTWFYAKSLGFRQDTLIPSAGIDEFFEYIANHTAGTPAWFVTLSLEGGAINDVAEDATAYAHRDVLFWVQLFMVNPVGPISDTTYEFTDGLYDVLARAVPESVGHAYLGCPDPRMEDAQQKYWRTNLPRLQELKEELDPKNTFHHPQGVMPA
B2: t865740 (protein)
chain: B1 chain with N102T, N122E
B3: t878466 (protein)
chain: B1 chain with N102T, Q161K
modifications: expressed in S. cerevisiae strain
B4: t865731 (protein)
chain: B1 chain with V25A, N102T
B5: t865758 (protein)
chain: B1 chain with N102T, E456A
modifications: expressed in S. cerevisiae strain
B6: t865814 (protein)
chain: B1 chain with N102T, D280N
modifications: expressed in S. cerevisiae strain
B7: t865721 (protein)
chain: B1 chain with N102T, Y256F
B8: t865733 (protein)
chain: B1 chain with N102T, V398T
B9: t878468 (protein)
chain: B1 chain with A57E, N102T
modifications: expressed in S. cerevisiae strain
B10: t865796 (protein)
chain: B1 chain with N102T, L458W
modifications: expressed in S. cerevisiae strain
B11: t865730 (protein)
chain: B1 chain with N102T, N202G
B12: t865809 (protein)
chain: B1 chain with N102T, N122G
modifications: expressed in S. cerevisiae strain
B13: t865735 (protein)
chain: B1 chain with N102T, T446P
B14: t865795 (protein)
chain: B1 chain with N102T, F262I
modifications: expressed in S. cerevisiae strain
B15: t865727 (protein)
chain: B1 chain with N102T, H353A

These molecules were tested on CBCA, THCA, and CBDA production (assay: In vivo TS activity assay, Example 2 protein engineering of A. niger CBCAS, cultures fed olivetolic acid). Conditions: secondary screen, olivetolic acid (Table 8).
Assay type: cell-based, S. cerevisiae
Summary of the method: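 S. cerevisiae expressing A. niger CBCAS mutants (MFalpha2/HDEL-tagged) grown 2 days at 30 °C in YEP+4% dextrose, then 4 days at 20 °C in YEP+4% galactose with 1 mM olivetolic acid, spiked every 24 h with 2% galactose and 1 mM olivetolic acid. 100 mM citrate pH 5.5 added, methanol-extracted; CBCA, THCA, CBDA quantified by LC-MS.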

Molecule	Mean CBCA	Mean CBDA	Mean THCA
B1	30758.44 µg/L	7663.56 µg/L	2146.00 µg/L
B2	11837.41 µg/L	3671.56 µg/L	685.53 µg/L
B3	23882.09 µg/L	8030.74 µg/L	1649.00 µg/L
B4	16059.53 µg/L	4006.74 µg/L	971.80 µg/L
B5	26316.76 µg/L	6998.62 µg/L	1712.53 µg/L
B6	20192.93 µg/L	6751.44 µg/L	1367.48 µg/L
B7	21099.41 µg/L	5260.35 µg/L	1396.80 µg/L
B8	18070.99 µg/L	6320.33 µg/L	1307.71 µg/L
B9	26823.18 µg/L	8556.40 µg/L	1922.88 µg/L
B10	19975.57 µg/L	6427.56 µg/L	1436.09 µg/L
B11	27874.45 µg/L	8385.38 µg/L	1771.94 µg/L
B12	20413.40 µg/L	6738.75 µg/L	1390.36 µg/L
B13	27519.94 µg/L	7436.20 µg/L	1783.72 µg/L
B14	24874.10 µg/L	7028.82 µg/L	1807.99 µg/L
B15	16276.39 µg/L	4297.38 µg/L	1177.87 µg/L

Same assay, conditions: share of terminal cannabinoid product profile

Molecule	% CBCA	% CBDA	% THCA
B1	75.82%	18.89%	5.29%
B2	73.10%	22.67%	4.23%
B3	71.16%	23.93%	4.91%
B4	76.34%	19.05%	4.62%
B5	75.13%	19.98%	4.89%
B6	71.32%	23.85%	4.83%
B7	76.02%	18.95%	5.03%
B8	70.32%	24.59%	5.09%
B9	71.91%	22.94%	5.15%
B10	71.75%	23.09%	5.16%
B11	73.29%	22.05%	4.66%
B12	71.52%	23.61%	4.87%
B13	74.90%	20.24%	4.85%
B14	73.79%	20.85%	5.36%
B15	74.83%	19.76%	5.42%

The molecules below were run on CBCVA, THCVA, and CBDVA production (assay: In vivo TS activity assay, Example 2 protein engineering of A. niger CBCAS, cultures fed divaric acid). Conditions: S. cerevisiae strains expressing A. niger CBCAS mutants, secondary screen, fed divaric acid.
Assay type: cell-based, S. cerevisiae
Summary of the method: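 S. cerevisiae expressing A. niger CBCAS point mutants (N-terminal MFalpha2, C-terminal HDEL signal peptides) grown 2 days at 30 °C in YEP+4% dextrose, then 4 days at 20 °C in YEP+4% galactose with 1 mM divaric acid plus daily 2% galactose and 1 mM divaric acid spikes, then 2 days with 100 mM sodium citrate pH 5.5. Methanol extracts analysed by LC-MS; quadruplicate.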

Molecule	Mean CBCVA	Mean CBDVA	Mean THCVA
B1	2190.11 µg/L	0.00 µg/L	1153.25 µg/L
B2	1153.83 µg/L	0.00 µg/L	469.98 µg/L
B3	2985.03 µg/L	0.00 µg/L	1623.40 µg/L
B4	1605.94 µg/L	0.00 µg/L	885.33 µg/L
B5	3465.87 µg/L	0.00 µg/L	1548.62 µg/L
B6	3290.24 µg/L	0.00 µg/L	1468.01 µg/L
B7	3281.34 µg/L	0.00 µg/L	1482.54 µg/L
B8	2023.09 µg/L	0.00 µg/L	1202.96 µg/L
B9	2954.90 µg/L	0.00 µg/L	1628.92 µg/L
B10	2570.89 µg/L	0.00 µg/L	1344.71 µg/L
B11	3406.05 µg/L	0.00 µg/L	1922.88 µg/L
B12	3093.25 µg/L	0.00 µg/L	1662.32 µg/L
B13	2900.35 µg/L	0.00 µg/L	1459.81 µg/L
B14	1897.16 µg/L	0.00 µg/L	1181.24 µg/L
B15	1829.32 µg/L	0.00 µg/L	981.31 µg/L

Same assay, conditions: share of terminal cannabinoid product profile, fed divaric acid

Molecule	% CBCVA	% CBDVA	% THCVA
B1	65.51%	0.00%	34.49%
B2	71.06%	0.00%	28.94%
B3	64.77%	0.00%	35.23%
B4	64.46%	0.00%	35.54%
B5	69.12%	0.00%	30.88%
B6	69.15%	0.00%	30.85%
B7	68.88%	0.00%	31.12%
B8	62.71%	0.00%	37.29%
B9	64.46%	0.00%	35.54%
B10	65.66%	0.00%	34.34%
B11	63.92%	0.00%	36.08%
B12	65.04%	0.00%	34.96%
B13	66.52%	0.00%	33.48%
B14	61.63%	0.00%	38.37%
B15	65.09%	0.00%	34.91%

Reference: patent US20230137139A1, “BIOSYNTHESIS OF CANNABINOIDS AND C[…]” (priority 2020, published 2023)
